Publication PMC8888459 (2022)

Tests used:
Yah1-GST fusion protein [1] = target: T1, Yah1-GST fusion protein (S. cerevisiae, UniProt Q12184 17-172); assay: BLI; anaerobic, reduced Yah1; KD2 of 2:1 fit (39%), second site
T1 chain: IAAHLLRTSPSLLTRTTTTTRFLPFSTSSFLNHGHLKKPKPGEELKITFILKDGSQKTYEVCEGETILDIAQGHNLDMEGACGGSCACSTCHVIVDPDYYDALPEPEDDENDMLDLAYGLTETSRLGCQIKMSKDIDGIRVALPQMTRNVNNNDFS

Yah1-GST fusion protein [2] = target: T1, Yah1-GST fusion protein; assay: BLI; anaerobic, reduced Yah1 (Fig. 6C); KD2 of 2:1 fit (60%), second site
Yah1-GST fusion protein [3] = target: T1, Yah1-GST fusion protein; assay: BLI; KD1 of 2:1 heterogeneous ligand fit (46%)
Yah1-GST fusion protein [4] = target: T1, Yah1-GST fusion protein; assay: BLI; anaerobic, reduced Yah1 (Fig. 6C); kd2 of 2:1 fit, second site
Yah1-GST fusion protein [5] = target: T1, Yah1-GST fusion protein; assay: BLI; kd2 of 2:1 fit, second site
Yah1-GST fusion protein [6] = target: T1, Yah1-GST fusion protein; assay: BLI; KD2 of 2:1 heterogeneous ligand fit (54%), second site
Yah1-GST fusion protein [7] = target: T1, Yah1-GST fusion protein; assay: BLI; anaerobic, reduced Yah1; kd2 of 2:1 fit, second site
Yah1-GST fusion protein [8] = target: T1, Yah1-GST fusion protein; assay: BLI; anaerobic, reduced Yah1; KD1 of 2:1 fit (61%)
Yah1-GST fusion protein [9] = target: T1, Yah1-GST fusion protein; assay: BLI; anaerobic, reduced Yah1 (Fig. 6C); KD1 of 2:1 fit (40%)
Yah1-GST fusion protein [10] = target: T1, Yah1-GST fusion protein; assay: BLI; anaerobic, reduced Yah1 (Fig. 6C); kd1 of 2:1 fit
Yah1-GST fusion protein [11] = target: T1, Yah1-GST fusion protein; assay: BLI; kd1 of 2:1 fit
Yah1-GST fusion protein [12] = target: T1, Yah1-GST fusion protein; assay: BLI; anaerobic, reduced Yah1; kd1 of 2:1 fit

Kd (Yah1-GST fusion protein [1]): 114 nM
Kd (Yah1-GST fusion protein [2]): 65.8 nM
Kd (Yah1-GST fusion protein [3]): 0.0966 nM
koff (Yah1-GST fusion protein [4]): 0.00248 s⁻¹
koff (Yah1-GST fusion protein [5]): 0.0267 s⁻¹
Kd (Yah1-GST fusion protein [6]): 280 nM
koff (Yah1-GST fusion protein [7]): 0.00204 s⁻¹
Kd (Yah1-GST fusion protein [8]): 0.82 nM
Kd (Yah1-GST fusion protein [9]): 0.446 nM
koff (Yah1-GST fusion protein [10]): 4.91e-07 s⁻¹
koff (Yah1-GST fusion protein [11]): 3.54e-07 s⁻¹
koff (Yah1-GST fusion protein [12]): 3.88e-07 s⁻¹
B1: NIA complex (Nfs1–Isd11–ACPEc) (complex)
chain 1: PAAGVKLDDNFSLETHTDIQAAAKAQASARASASGTTPDAVVASGSTAMSHAYQENTGFGTRPIYLDMQATTPTDPRVLDTMLKFYTGLYGNPHSNTHSYGWETNTAVENARAHVAKMINADPKEIIFTSGATESNNMVLKGVPRFYKKTKKHIITTRTEHKCVLEAARAMMKEGFEVTFLNVDDQGLIDLKELEDAIRPDTCLVSVMAVNNEIGVIQPIKEIGAICRKNKIYFHTDAAQAYGKIHIDVNEMNIDLLSISSHKIYGPKGIGAIYVRRRPRVRLEPLLSGGGQERGLRSGTLAPPLVAGFGEAARLMKKEFDNDQAHIKRLSDKLVKGLLSAEHTTLNGSPDHRYPGCVNVSFAYVEGESLLMALRDIALSSGSACTSASLEPSYVLHALGKDDALAHSSIRFGIGRFSTEEEVDYVVKAVSDRVKFLRELSPLWEMVQEGIDLNSIKWSGH
chain 2: MPGFTAPTRRQVLSLYKEFIKNANQFNNYNFREYFLSKTRTTFRKNMNQQDPKVLMNLFKEAKNDLGVLKRQSVISQMYTFDRLVVEPLQGRKH
chain 3: MSTIEERVKKIIGEQLGVKQEEVTNNASFVEDLGADSLDTVELVMALEEEFDTEIPDEEAEKITTVQAAIDYINGHQA
